Assay: yeast display, Sf9 membrane polyspecificity reagent, FACS + sequencing; frameworks hold sequencing errors
Outline: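 Genes from sorted yeast were amplified by colony PCR, read by MiSeq 2 × 250 sequencing and filtered on CDR length. These cells carried a synthetic nanobody library in Saccharomyces cerevisiae BJ5465 and were sorted by FACS into low and high (top ~1%) gates on anti-HA and streptavidin fluorescence. Polyreactivity is labelled according to the gate of origin.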

| Sequence | polyreactivity (PSR sort gate) |
| --- | --- |
| QVQLVESGGGLVQAGGSLRLSCAASGFTFWAYAMGWYRPAPGKERELVARISGSGGRTYYADSVKGRFTISRDNAKNTVYLQMNSLKREDTAVYYCNAPYFNWYGYWGQGTQVTVSS | high polyreactivity |
| QVQLVESGGGLVQAGGRLRLSCAASGRIFKSNAMGWYRQAPGKERELVATIDVIGTSTYYADSVKGRFTISRDNAKNTVYLQMNSLKPEDTAVYYCAAVGWGGWSDSYDYWGQGTQVTVSS | low polyreactivity |
| QVQLVESGGGIVQAGGSLRLSCAASGFTISRNTMGWYRQAPGKEREFVARISAYGGSTYYADSVKGRFTISRDNAKNSVYLQMNSLKPVDTAVYYCAAVYRRYGGSRYDYWGQGTQVTVSS | high polyreactivity |
| QVQLVESGGGLVQAGGSLRLSCAPSGSIFGGYAMGWYRQAPGKERELVAGITYSGDSTYYADSVKGRFTISRDNAKYTVYLQMNSLKPEDTAVYYCNADQRVDHDDFDYWGQGTQVTVSS | low polyreactivity |
| QVQLVESGGGLVQAGGSLRLSCAASGSTFSSNTMGWYRQAPGKEREMVAAITRRGGSTYYADSVKGRFTISRDNAKNTVYLQMNCLKPEDTAVYYCAARAYGGYGYWGQGTQVPVSS | low polyreactivity |
| QVQLVESGGGLVQAGGSLRLSCAASGRIFRKNARGWYRQAPGKEREFVAAIRLSGGRTFYADSVKGRFTISRDNAKNTVYLQMNSLKPEDTAVYYCAAETVNGKHDYWGQGTQVTVSS | high polyreactivity |
| QVQLVDSGGGLVQAGASLRLSCAASGSTFSSNVMGWYRQAPGKERELVAAITKTGGLTYYADSVKGRFTISRDNAKNTVYLNMNSLKPEDTSVYYCAAKSKRRGTTSVYYYWGQGTQVTVSS | high polyreactivity |
| QLQLEESAGGLVQAGGSLRLSCAASGSIFGPYAMGSYSQAPGKERELVAAITWSGDSTYYADSVKGRFTISRDNAKNTVYLQMNSLKPEDTAVSYCNADWGQGTQVTVSS | low polyreactivity |
| QVQLVESGGGLVQAGGSLRLSCAASGRTFAQYGMVWYRQAPGKEMELVAAISRRTGSTNYADSVKGRFTISRDNAKNTVYLQMNSLKPEDTAVYYCAARSYSYGVGYGYWGQGTQVTVSS | high polyreactivity |
| QVKLVETGGGLVQAGGSLRLSCAASGITFAYYAMGWYRQAPGKERELVARISRRGGSTYYADSVKGRFTISRDNAKNNVYLQMNSLKPEDTAVYYCAARVVVPKPYVDGDYWGEGTQVTVSS | high polyreactivity |
| QVQLVESGGGLVQAGGSLRLSCAASGRILSPYAMGWYRQAPGKERELVAAITSGGRTHYADSVKGRFTISRDNAKNTVYLQMNSLKRVDTAVYYCAARVRSGWWVRDDYWGQGTQVTVSS | high polyreactivity |
| QVQLVDSGAGLVQAGGSLRISCAATGSTFPRYGMGWYRQAPGKERQMVAAISSGGRTNYADSVKGRFTISRDNAKNTVYLQMNSLKPEDTAVYYCAARIPYYFSYYFYSGMDYWGQGTQVTVSS | high polyreactivity |
| KVQLVESGGGLVQAGGSLRLSCAASGLTFSVYAMGWYRQAPGKERELVAAITNSGGSTYYADSVKGRFTISRDNAKNTVYLQMNSLIPEDTAVYYCAARYSTYYSGPPGLHLDYYYWGQGTQVTVSS | low polyreactivity |
| QVQLVESGGGLVQAGGSLRLICAASGRIFRYNALGWYRQAPGKERELVATISGTSRTKYADSVKGRFTISRDNAKHTVYLQMNSLKPEDTAVYYCAARRYGWGRAQSSASYDHWGQGTQVTVSS | high polyreactivity |
| QVQLVESGGGLVQAGGSLRLSCAASGSTFWAYAMGWYRQAPGKERELVAAITTGGGRTFYADSVKGRFTISRDNAKNTVYLQMNSLKPEDTAVYYCAAVSQSYRMYYWGQGTQVTVSS | low polyreactivity |
| QVQLVESGGGLVQAGGCLRLSCAASGSTFSPNAMGWYRQAPGKERELVAAISVSCGTTYYADSVKGRFTISRDNAKNTVYLQMNSLKPEDTAVYYCAAKPYPTDDYWGQGTQVTVSS | low polyreactivity |
| QVQLVESGGGLVQAGGSLRLSCAASGLTFVYYAMGWYRQAPGNERELVAAISRRGGSTNYADSVKGRFTISRDNAKNTVYLQMNSLKPEDTAVYYCAATSRYFQPPGYGGGRIGYGYWGQGTQVTVSS | high polyreactivity |
| QVQLVESRGGLVQAGGSLPLSCAASGFIFTSYAMGWYRQAHGKEREFVAAISGSGGSTYYADSVKGRFTISRDNAKNTVYLQMNSLKPEDTAVYYCAAESWVGYYLYWYDYWGQGTQVTVSS | high polyreactivity |
| QVQLVESGGGLVQAGGSLRLSCAASGRTFTYNTMGWYRQAPGKERELVAAISSSGGSTYYADSVKGRFTISRDNAKNTVYLKMNCLKPEDTAVYYCAKRYFSSSRYYYWGQGTKVTVSS | high polyreactivity |
| QVQLVESGGGLVQAGGSLRLSCAASGLTFYHYDMGWYRQAPGIETELVAAITNGGSTYYADSVKGRFTISRDNAKNTVYLQMNSLKPEDTAVYYCAADGSGYYDWYYYWGQVTQVTVSS | low polyreactivity |
| QVQLEESGAGLVQAGGSLRLSCAPSGIIYDGNAMGWYRKAPGKERELLASITSDSSTNYADSVKGRFTISRDNAKYTVYLHMNSLKPQDTAVYYCAADHWIAPRRDYWGQGTQVTVSS | low polyreactivity |
| QVQLVESGGGLVQAGGSLRLSCAASGIIFAYYAMGWYRQAPGKERELVAAITSGGSTHYADSVKGRFTISRDNAKNTVYLKMNSLKPEDTAVYYCAADVSYYASLFDYGGQGTQVTVSS | low polyreactivity |

| Sequence | polyreactivity (PSR sort gate) |
| --- | --- |
| QVQLVESGGGLVQAGGTLRLSCDASGRTFGYNAMGWYRQAPGKAREFDAAITWSGGSTYYADSVKGRFTISRDNAKNTVYLQMNSLKPEDTAVYYCAADLGRPLHGVAYGYWGQGTQVTVSS | low polyreactivity |
| QVQLVESGGGLVQAGGTLRLSCAASGRTFNTYAMGWYRQAPGKERELVAAISSGGRTYYADSVKGRFTISRDNAMLTVYLQMNSLKPEDTAVYYCAAKRFQYRTLYEFWGLGTQVTVSS | high polyreactivity |
| QVQLEESGGGVVQAGGSLRLSCAASGGTFSRYAMGWYRQATGKERELVAAITRSGASTFYADSVKGRFTISRDNAKNTVYLQMNSLKPEDTAVYYCAADTYVYNEYDYWGQGTQVTVSS | high polyreactivity |
| QVQHVESGGGLVQAGGSLRLSCAASGSTIYHYAMGWSRPAHGKERELVAAITTIGGRTYYADSVKGRFTISRDNAKNTVYLQMNSLKPEDTAVYYCAAGYRAWEPYGHYGYWGQGTQVTVSS | high polyreactivity |
| QVQLVESGGGLVQAGGSLRLSSAASGSIFRRYALGWYRQEPGKESELVAAISRSAGSTYYADSVKGRFTISRDNAKNTVYLQMNSLKPEETAVYYCKTDPSRSPGDVVSASVIKRDYWGQGTQVTVSS | low polyreactivity |
| QVQLVESGGGLVQAGGSLLLSCAASGRIFSYNAMGWYRQAPGKERELVAVISRSDTSTYYADSVKGRFTISRDNAKNTVYLQMNSLKPEDTAVYYCNADGPSYFRYSGYYYWGQGTQVTVSS | low polyreactivity |
| HVQLVESGGGLVQAGGSLRLSCAASGNICYGYAMGGYRQAPGKERELVARINWSGSRTYYADSVKGRFTISRDNAKNTVYLQMNSLKPDDTAVYYCNTSTSRVPGNGDYWGQGTQVTVSS | high polyreactivity |
| QVQLVESGGGLVQAGGSLRLSCAASGRILGYYAMGWYRQAPGKERELVAAITYSGGSTYYADSVKGRFTISRDNAKNTVYLQMNSLKPEDTAVYYCAADKWLLGLYGSTWNDYWGQGTQVTVSS | low polyreactivity |
| QVQLVESGGGLVQAGGSLRLSCAASGSTFPWYVMGGYRQAPGKERELVAAISLSGGRTYYADSVMGRFTISRDNAKNRVYLQMNSLKPEDTAVYYCAAEFKLVSHTYYYWGQGTQVTVSS | low polyreactivity |
| QVQLVESGGGLVQAGGSLRLSCAASGSTFPKYAMGWYRQAPGKERELVASISVTTGSTYYADSVKGRFTISRDNAKNTVYLQMNSLKPEDTAVYYCAKRTYSRKFRGAYNYWGQGTQVTVSS | high polyreactivity |
| QVQLVESGGGLVQAGGSLRLSCAASGFTFWYYAMGWYRQAPGKERELVATITSGDSTKYADSVKGRFTISRDNAKNTVYLQMNSLKPEDTAVYYCAAEKVLPFIGYDYWGQGTQVTVSS | low polyreactivity |
| QVQLVDSGRGLVQAGGSLRLSCAASGSIFDNYAMGSYRQAPGNERELVAAISGRGGSTYYADSVKGRFTISRDNAKNTVYLQMNSLKPEDTAVSYCNALVHQTYYDYDDWGHGTQVTVSS | high polyreactivity |
| QVQLVESGGGLVQAGGSLRLSCAASGYTFGSNAMGWYRQAPGKERELVADIDWSSGNTYYADSVKGRFTISRDNAKNTVYVQMNSLKPEDTAVYYCAAELLIYYSWYWYDYWGQGTQVTVSS | high polyreactivity |
| QVQLVESGGGLVQAGGSLRLSCAASGRTFQKNTMGWYRQARGKEMQLVAAIDFSATTTYYADSVKGRFTISRDNAKNTVYLQMNSLKPEATAVYYCAARWSYPRWELDYWGQGTQVTVSS | high polyreactivity |
| QVHLVESGGGLVQAGGSLRLSCAASGRTFGINAMGWYRQAPGKERELDAVISFGDGGTYYADSVKGRFTISRDNAKNTVYLQMKSLKPEDTAVYYCATDYQSTSVWGGHFVINPYDYWGQGTQVTVSS | low polyreactivity |
| QVQLVESGGGLVQAGGSLRLSCAASGSINVRYAMGWYRQAPGKERELVAAISWSGGRTYYADSVKGRFTISRDNAKNTVYLQMNSLKPEDTAVYYCAADSSVRYRDTEDYWGQGTQVTVSS | low polyreactivity |
| QVQLVESGVGLVQAGGSLRLTCAASGITFLYNAMGSYRQAPGKERELVAVITRGGITNYADSVKGRFTISRDNAKNTDSLQMYRLNPEDTAVYDWAAYRGIYSRYDYWGQGTQVNVSS | high polyreactivity |
| QVQLVESGGGLVQAGGSLRLSCAASGFTFRIYAMGWYRQAPGKERELVAAITWSGGSTSYADSVKGRFTISRDNAKNTVYLQMNSLKPEDTAVYYCAAETKYSGAYPYDYWGQGTQVTVSS | high polyreactivity |
| QFQLVESGGGLVQAGGSLRLSCAASGFTFTVYAMGWYRQAPGKERELVAAITRGTSTYADSVKGRFTISRDNAKNTVYLQMNSLKPEDTAVYYCAARSSPWYTRYRSSELFDYWGQGTQVTVSS | high polyreactivity |
| QDQLVESGGGLVQAGGSLRLSCDASGYIFQSNVLGWYRQAPGKERELVAAITVSGGSTYYADSVKGRFTISRDNAKNTVYLQMNSLKPEDTAVYYCAALVAHKGDYWGQGTQVTVSS | high polyreactivity |
| PVQLQESGGGLVQAGGSLRLSCAASGNIFDADIMGWYRQAPGKESELVACIADGGSTNYAESVKGRFTISRDNAKNTVYLQMNRLKPEDTAVYYCAAIAYPDIPTCFDYDSDYFFRGQGTQVTVSS | low polyreactivity |

Source: the nanobody polyreactivity screen of Harvey et al. (2022)
